The chains are these.
B1: 531_1L2_variant3 Fab (Fab, V domains shown)
VH: EVQLLESGGGLVQPGGSLRLSCAASGYTFTRYWLNWVRQAPGKGLEWIGMIDPSVSETHYADSVKGRATLSVDKSKNTAYLQMNSLRAEDTAVYYCSQIRLPYYYAMDSWGQGTTVTVSS
VL: DIQMTQSPSSLSASVGDRVTITCRASQDINSFLNWYQQKPGKAVKLLIYYTSRLQSGVPSRFSGSGSGTDYTLTISSLQPEDFATYFCQQGNTLPRTFGGGTKVEIK
notes: Humanized Fab; The His-tag was removed with TEV protease before SPR
B2: 531_1L2_variant21 Fab (Fab, V domains shown)
VH: QVQLVQSGAEVKKPGASVKVSCKASGYTFTRYYLNWVRQAPGQGLEWIGMIDPSVSETHYAQKFQGRATLTVDKSTSTAYMELSSLRSEDTAVYYCSQIRLPYYYAMDSWGQGTTVTVSS
VL: B1 VL with N30S
notes: as for B1
B3: 531_1L2_variant4 Fab (Fab, V domains shown)
VH: B1 VH with W33Y
VL: B1 VL
notes: as for B1
B4: 531_1L2_variant8 Fab (Fab, V domains shown)
VH: B1 VH with W33Y
VL: B1 VL with N30S
notes: as for B1
B5: 531_1L2_variant17 Fab (Fab, V domains shown)
VH: B2 VH with G26D, Y33W
VL: B1 VL with N30S
notes: as for B1
B6: 531_1L2_variant14 Fab (Fab, V domains shown)
VH: B2 VH with G26D, Y33W, I48M, A68V, L70M, V72R, K74T, A79V
VL: B1 VL
notes: as for B1
B7: 531_1L2_variant24 Fab (Fab, V domains shown)
VH: B2 VH
VL: B1 VL with N30S, Y71F
notes: as for B1
B8: 531_1L2_variant16 Fab (Fab, V domains shown)
VH: B2 VH
VL: B1 VL
notes: as for B1
B9: 531_1L2_variant6 Fab (Fab, V domains shown)
VH: B1 VH
VL: B1 VL with N30S
notes: as for B1

Changes are numbered by the printed parent chain.

His-tagged mouse TfR ectodomain (mTFRC_89_764; mature protein), sequence (Q62351 other isoform, or with tags, fused parts or gaps): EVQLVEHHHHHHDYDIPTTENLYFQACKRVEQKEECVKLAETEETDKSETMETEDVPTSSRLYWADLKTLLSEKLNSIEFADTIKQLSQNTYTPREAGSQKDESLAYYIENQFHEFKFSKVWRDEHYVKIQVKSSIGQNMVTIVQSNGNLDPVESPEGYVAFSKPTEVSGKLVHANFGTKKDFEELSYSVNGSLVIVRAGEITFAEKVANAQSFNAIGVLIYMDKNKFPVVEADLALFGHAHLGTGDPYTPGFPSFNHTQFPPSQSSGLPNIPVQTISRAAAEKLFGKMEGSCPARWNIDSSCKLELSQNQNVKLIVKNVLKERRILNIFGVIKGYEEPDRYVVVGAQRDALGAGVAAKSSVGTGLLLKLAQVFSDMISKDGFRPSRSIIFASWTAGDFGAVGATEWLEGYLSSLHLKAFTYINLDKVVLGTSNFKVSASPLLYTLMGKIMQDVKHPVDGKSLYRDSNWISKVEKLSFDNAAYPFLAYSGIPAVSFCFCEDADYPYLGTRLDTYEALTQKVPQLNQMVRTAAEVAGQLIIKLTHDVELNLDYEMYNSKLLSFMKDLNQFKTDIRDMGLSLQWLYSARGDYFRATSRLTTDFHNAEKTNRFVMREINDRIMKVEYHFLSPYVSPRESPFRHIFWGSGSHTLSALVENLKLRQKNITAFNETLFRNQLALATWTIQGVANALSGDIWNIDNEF

One experiment has as its target His-tagged mouse TfR ectodomain (mTFRC_89_764; mature protein) (mouse, UniProt Q62351 89-763). Nature of the experiment: SPR, His-tagged mTfR ectodomain captured on anti-His. The procedure: (§1) Binding of the humanized Fab variants to human, cynomolgus and mouse TfR was assessed using SPR at pH 7.4. Experiments were run on a Bruker MASS-2 instrument with HBS-EP+ as running buffer and sample diluent (Cytiva Life Sciences, #BR100826). HCA sensor chips (Bruker, #1862614) were immobilized with anti-His antibody (His capture kit, Cytiva Life Sciences, #28995056) following manufacturer's instructions. About 10,000 RU of anti-His was obtained. His-tagged hTfR ectodomain (SEQ ID NO: 39), cTfR ectodomain (SEQ ID NO: 40) or mouse TfR ectodomain (SEQ ID NO: 41) (5 μg/ml) was captured for 1 min at 10 μL/min. Concentration series of the humanized Fab variants were then injected for 4 min at 30 μL/min over hTfR surfaces and dissociation was monitored for 5 min. Surface was regenerated with one 1 min pulse of 10 mM glycine-HCl at pH 1.5.
Regarding B1, the binding result is reported as “no binding”.

Take B2: the binding result is on record as “no binding”.

As to B3, the binding result is “no binding”.

In the case of B4, the binding result is given as “no binding”.

In the case of B5, the binding result was “no binding”.

Consider B6, for which the binding result is “no binding”.

Turning to B7, the binding result is on record as “no binding”.

As for B8, the binding result is reported as “no binding”.

Turning to B9, the binding result is reported as “no binding”.

The next experiment deals with T1, His-tagged cynomolgus monkey TfR ectodomain (cyTFRC_89_760; mature protein) (cynomolgus monkey (Macaca fascicularis), UniProt Q5RDH6 89-760 (Pongo abelii entry)).
T1 construct: also called cTfR; cTfR ectodomain
T1 chain: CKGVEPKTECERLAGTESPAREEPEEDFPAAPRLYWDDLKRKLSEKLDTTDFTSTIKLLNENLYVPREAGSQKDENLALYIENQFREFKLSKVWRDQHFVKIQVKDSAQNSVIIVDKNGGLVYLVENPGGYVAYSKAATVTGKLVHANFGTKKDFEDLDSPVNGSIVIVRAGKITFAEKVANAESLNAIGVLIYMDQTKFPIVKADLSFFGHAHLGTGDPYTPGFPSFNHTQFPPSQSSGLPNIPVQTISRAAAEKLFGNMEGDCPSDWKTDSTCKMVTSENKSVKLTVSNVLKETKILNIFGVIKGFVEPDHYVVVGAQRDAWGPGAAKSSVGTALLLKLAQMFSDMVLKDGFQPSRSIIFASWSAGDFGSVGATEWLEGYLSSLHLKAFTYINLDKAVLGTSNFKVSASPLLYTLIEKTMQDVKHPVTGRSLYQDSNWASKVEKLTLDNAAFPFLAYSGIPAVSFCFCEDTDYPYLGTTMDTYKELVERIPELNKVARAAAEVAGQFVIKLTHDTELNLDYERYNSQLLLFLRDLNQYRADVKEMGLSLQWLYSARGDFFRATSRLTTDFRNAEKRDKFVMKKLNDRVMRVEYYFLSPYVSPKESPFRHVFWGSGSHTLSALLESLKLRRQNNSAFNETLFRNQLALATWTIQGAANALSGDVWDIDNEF
Nature of the experiment: SPR, His-tagged TfR ectodomain captured on anti-His, 1:1 fit. The procedure: as §1
In general terms: Surface plasmon resonance follows binding to a sensor surface in real time, without labels.
Molecule B1 registered a Kd of 204 nM.

B2 yielded a Kd of 30.9 nM.

Molecule B3 returned a Kd of 1210 nM.

B4: binding was characterised by a dissociation constant (Kd) of 475 nM.

On to B5, for which the Kd worked out at 28.9 nM.

B6 gave a Kd of 75.1 nM.

B7 gave a Kd of 84.6 nM.

Molecule B8 yielded a Kd of 70.4 nM.

Turning to B9, the Kd was found to be 300 nM.

In the next experiment the target is T2, His-tagged human TfR ectodomain (hTFRC_89-760_G142S; mature protein) (human, UniProt P02786 89-760).
T2 construct: It carries the G142S haplotype; also called hTfR ectodomain
T2 sequence (P02786 89-760 G142S): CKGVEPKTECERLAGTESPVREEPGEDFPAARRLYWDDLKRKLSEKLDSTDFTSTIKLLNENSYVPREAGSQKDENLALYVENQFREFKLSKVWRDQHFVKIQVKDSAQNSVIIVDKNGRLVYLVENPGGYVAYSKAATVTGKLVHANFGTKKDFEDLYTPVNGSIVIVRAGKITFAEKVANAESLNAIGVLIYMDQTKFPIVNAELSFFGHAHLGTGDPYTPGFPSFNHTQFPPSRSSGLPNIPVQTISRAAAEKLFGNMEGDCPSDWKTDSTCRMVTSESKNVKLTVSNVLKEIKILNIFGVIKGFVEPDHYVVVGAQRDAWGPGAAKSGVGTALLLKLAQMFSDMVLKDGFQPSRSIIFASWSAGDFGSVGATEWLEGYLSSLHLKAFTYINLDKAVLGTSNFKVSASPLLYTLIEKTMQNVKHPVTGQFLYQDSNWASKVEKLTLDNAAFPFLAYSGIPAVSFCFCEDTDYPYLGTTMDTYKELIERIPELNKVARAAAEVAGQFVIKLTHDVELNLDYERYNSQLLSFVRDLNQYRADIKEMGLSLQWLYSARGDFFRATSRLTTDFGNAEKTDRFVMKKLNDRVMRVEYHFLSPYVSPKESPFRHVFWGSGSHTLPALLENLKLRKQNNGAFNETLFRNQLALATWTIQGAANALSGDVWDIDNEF
The experiment is described as above. The procedure: as §1
As to B1, the Kd was 183 nM.

B2 registered a Kd of 3.71 nM.

B3 displayed a Kd of 120 nM.

The molecule B4 registered a Kd of 61.2 nM.

The molecule B5 gave a Kd of 5.91 nM.

B6 gave a Kd of 8.6 nM.

As to B7, the Kd was 10.2 nM.

As for B8, the Kd was determined as 10.2 nM.

In turn, B9 came in with a Kd of 77.4 nM.

A further experiment addresses T1, His-tagged cynomolgus monkey TfR …. The experiment is described as follows: SPR; KD on cTfR against KD on hTfR. On the procedure:
as §1
In the case of B1, the “Cynomolgus/human KD ratio” value was 1.1.

B2: the “Cynomolgus/human KD ratio” value amounted to 8.3.

With B3, the “Cynomolgus/human KD ratio” value amounted to 10.1.

As to B4, the “Cynomolgus/human KD ratio” value stood at 7.8.

Regarding B5, the “Cynomolgus/human KD ratio” value was found to be 4.9.

With B6, the “Cynomolgus/human KD ratio” value came to 8.7.

Take B7: the “Cynomolgus/human KD ratio” value came out at 8.3.

With B8, the “Cynomolgus/human KD ratio” value was determined as 6.9.

On to B9, for which the “Cynomolgus/human KD ratio” value amounted to 3.9.

Broadly, the Kd is a measure of binding affinity in units of concentration.

The values are drawn from patent US20240226314A1 (Sanofi, published 2024).
